Experiment [1] addresses Fn fibers in PC-3 xenograft tumor tissue of CD1 nude mice (not stated (human PC-3 xenograft in CD1 nude mouse)) (UniProt P11276).
Experiment [2] shares this target. This is another data set of the same source.
Experiment [3] concerns the target T1, fibronectin isolated from human plasma (human, UniProt P02751 32-2477, in the fibers 5% of the protein was Cy5-labeled (Cy5-maleimide on the cryptic cysteines at FnIII7 and FnIII15)). The experiment is described as follows: fluorescence polarisation; anisotropy titration; 100 nM Alexa-488 labeled peptide in PBS, Fn titrated from 0 to 1.4 μM, 20 °C; one-site-binding model; three independent measurements. Conditions: both partners purified. Background: In fluorescence polarisation assays a small probe gives low polarisation when free and higher when bound to something large.

Experiment [4] addresses T1, fibronectin isolated from human plasma. The experiment can be described thus: single Fn fiber binding assay (confocal microscopy, intensity ratio peptide-Alexa488 / Fn-Cy5); Fn fibers (95% unlabeled, 5% Cy5-labeled) manually pulled onto a silicone sheet and relaxed to about 7% strain; blocked with BSA; varying concentrations of peptide for 1 h, washed, imaged; ratio at 10 μM set to 1. The following applies: both partners purified.

No end group written: not given here.

Chain of Fn fibers in PC-3 xenograft tumor tissue of CD1 nude mice (not stated (human PC-3 xenograft in CD1 nude mouse)) (P11276 33-2477): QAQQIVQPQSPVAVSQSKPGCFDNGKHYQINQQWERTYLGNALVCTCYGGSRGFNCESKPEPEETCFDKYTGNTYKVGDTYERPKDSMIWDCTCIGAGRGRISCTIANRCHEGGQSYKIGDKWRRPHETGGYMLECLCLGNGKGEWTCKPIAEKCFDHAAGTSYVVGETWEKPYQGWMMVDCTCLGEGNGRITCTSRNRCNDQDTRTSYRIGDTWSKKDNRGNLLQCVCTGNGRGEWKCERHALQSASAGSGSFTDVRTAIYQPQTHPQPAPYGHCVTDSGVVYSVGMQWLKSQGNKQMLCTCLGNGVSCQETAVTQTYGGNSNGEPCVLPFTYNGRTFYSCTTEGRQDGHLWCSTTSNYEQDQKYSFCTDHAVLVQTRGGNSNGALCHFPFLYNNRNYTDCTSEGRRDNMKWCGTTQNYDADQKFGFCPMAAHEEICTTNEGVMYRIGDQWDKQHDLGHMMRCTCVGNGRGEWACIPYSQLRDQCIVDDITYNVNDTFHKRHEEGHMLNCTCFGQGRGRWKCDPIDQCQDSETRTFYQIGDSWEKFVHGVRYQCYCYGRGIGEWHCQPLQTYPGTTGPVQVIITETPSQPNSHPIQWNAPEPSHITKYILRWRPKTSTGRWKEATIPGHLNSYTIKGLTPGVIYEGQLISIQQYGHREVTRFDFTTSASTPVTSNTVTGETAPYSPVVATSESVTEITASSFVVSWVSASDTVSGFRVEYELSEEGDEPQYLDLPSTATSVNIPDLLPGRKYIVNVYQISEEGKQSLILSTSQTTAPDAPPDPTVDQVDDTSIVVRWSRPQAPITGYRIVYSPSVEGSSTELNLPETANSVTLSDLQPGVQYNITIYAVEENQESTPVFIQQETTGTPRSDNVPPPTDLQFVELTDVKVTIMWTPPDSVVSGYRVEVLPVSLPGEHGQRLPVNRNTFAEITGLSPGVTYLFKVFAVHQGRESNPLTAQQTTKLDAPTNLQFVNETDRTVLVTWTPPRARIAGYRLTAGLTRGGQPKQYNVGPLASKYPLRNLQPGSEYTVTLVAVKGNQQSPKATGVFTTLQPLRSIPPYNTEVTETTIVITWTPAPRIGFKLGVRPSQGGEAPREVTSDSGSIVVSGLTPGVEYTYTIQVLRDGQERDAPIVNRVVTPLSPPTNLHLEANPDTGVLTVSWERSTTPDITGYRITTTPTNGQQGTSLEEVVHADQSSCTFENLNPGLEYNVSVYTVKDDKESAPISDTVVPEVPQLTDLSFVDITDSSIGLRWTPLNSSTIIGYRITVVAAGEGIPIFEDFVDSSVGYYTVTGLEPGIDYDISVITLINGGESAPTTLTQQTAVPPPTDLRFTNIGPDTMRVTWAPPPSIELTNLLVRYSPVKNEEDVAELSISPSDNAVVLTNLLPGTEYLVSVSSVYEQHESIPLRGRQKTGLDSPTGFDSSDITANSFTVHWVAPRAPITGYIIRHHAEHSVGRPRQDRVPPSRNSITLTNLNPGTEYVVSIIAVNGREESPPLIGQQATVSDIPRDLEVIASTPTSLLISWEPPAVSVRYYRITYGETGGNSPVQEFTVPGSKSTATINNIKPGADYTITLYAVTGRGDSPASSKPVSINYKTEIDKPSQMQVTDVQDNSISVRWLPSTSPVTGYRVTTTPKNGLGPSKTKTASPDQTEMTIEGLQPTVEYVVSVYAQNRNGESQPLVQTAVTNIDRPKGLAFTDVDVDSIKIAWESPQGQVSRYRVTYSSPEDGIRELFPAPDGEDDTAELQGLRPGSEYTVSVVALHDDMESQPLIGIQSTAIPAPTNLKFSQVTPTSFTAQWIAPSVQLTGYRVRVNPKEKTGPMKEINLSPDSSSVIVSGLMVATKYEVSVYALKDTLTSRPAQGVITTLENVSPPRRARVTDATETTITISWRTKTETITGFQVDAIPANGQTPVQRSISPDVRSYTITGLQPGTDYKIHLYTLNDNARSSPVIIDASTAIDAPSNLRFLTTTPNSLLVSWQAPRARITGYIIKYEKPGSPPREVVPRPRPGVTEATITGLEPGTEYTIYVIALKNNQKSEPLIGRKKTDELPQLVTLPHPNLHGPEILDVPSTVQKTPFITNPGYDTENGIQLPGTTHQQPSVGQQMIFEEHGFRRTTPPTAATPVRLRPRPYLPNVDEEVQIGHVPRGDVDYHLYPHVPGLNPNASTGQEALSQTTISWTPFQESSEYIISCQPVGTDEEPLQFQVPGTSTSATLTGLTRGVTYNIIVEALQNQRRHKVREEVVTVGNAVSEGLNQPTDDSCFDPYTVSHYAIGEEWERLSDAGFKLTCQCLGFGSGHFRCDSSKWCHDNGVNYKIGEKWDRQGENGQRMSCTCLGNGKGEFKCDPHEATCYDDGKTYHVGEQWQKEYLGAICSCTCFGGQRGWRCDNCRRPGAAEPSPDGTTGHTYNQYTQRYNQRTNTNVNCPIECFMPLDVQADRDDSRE

Molecule “^natIn-FnBPA5 (cold labeled) / ^111In-FnBPA5 (peptide)” returned a tumor uptake of ^111In-FnBPA5 in PC-3-bearing mice, biodistribution at 1, 4, 24 and 96 h p.i. (maximum at 1 h p.i.) in experiment [1] of 4.74 % IA per g. In experiment [2], the change of ^111In-FnBPA5 uptake in the liver 4 h p.i. after pre-injection of a 10-fold excess of unlabeled FnBPA5 (24 nmol) is -58.2% and the change of ^111In-FnBPA5 uptake in the tumor 4 h p.i. after pre-injection of a 10-fold excess of unlabeled FnBPA5 (24 nmol) was -35.6%.

B1: FnBPA5-Alexa488 (peptide)
chain: {C(Alexa488)}-GQVTTESNLVEFDEESTKGIVTGAVSDHTTVEDTK
For B1, the Kd was 75 nM in experiment [3] and 28 nM in experiment [4].

Usually Kd stands for the free concentration of one partner at which half of the binding sites on the other are occupied at equilibrium, for simple one-to-one binding.

The record behind these values is PMC5702617, “Novel peptide probes to assess the tensional state of fibronectin fibers in cancer” (Nature Communications, 2017).
